Reference: PMC2998059

Molecular target: GST-PC1 C-terminus deletion mutant SH3
Experiment: pull-down

binding relative to PC1-FLCT: 50%
Substance: myc-tagged QLα12 (constitutively active, GTPase-deficient Gα12) (from UniProt P27600 48-379) (natural protein)
